Assay results published in US20250313611A1.

Target: SARS-COV-2 spike [change] trimer ([change]-foldon-His-Strep) (SARS-CoV-2 (Wuhan)) (UniProt P0DTC2)

VHH72-S56A
IC50 (read off the curve): 0.6 µg/mL
